Laboratory results from patent US20260193348A1 (ANTENGENE BIOLOGICS, published 2026).
Residue numbers refer to the chain shown, from its start. Names may count otherwise.

Columns and labels:
[1] = target: T1, CD19 on NALM6 cells, Raji cells and primary B cells (human, UniProt P15391 20-556); assay: FACS on NALM6 cells expressing CD19 (FIG. 45A)
T1 construct: whole, on cells; Endogenous CD19 on human cell lines / donor B cells; also called NALM6 cells expressing CD19; Raji cells expressing CD19
T1 sequence (looked up): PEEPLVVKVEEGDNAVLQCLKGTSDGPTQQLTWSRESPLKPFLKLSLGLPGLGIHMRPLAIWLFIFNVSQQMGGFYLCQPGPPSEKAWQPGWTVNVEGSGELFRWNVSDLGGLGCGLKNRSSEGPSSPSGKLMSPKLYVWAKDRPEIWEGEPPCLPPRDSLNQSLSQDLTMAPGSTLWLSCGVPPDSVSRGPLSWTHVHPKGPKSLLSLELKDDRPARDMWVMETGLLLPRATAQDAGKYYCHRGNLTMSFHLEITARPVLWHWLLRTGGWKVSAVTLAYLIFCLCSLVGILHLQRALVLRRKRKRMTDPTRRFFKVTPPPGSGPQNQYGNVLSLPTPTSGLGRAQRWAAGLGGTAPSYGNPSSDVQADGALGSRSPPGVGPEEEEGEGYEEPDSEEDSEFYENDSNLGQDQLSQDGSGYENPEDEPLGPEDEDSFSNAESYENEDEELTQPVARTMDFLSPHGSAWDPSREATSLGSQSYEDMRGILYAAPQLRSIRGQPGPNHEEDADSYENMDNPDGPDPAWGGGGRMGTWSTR

[2] = target: T2, CD3 on T cells / Jurkat cells (human, UniProt P07766 23-207; P04234 22-171; P09693 23-182); assay: FACS on Jurkat cells expressing CD3
T2 construct: whole, on cells; Native CD3 complex on CD3+ T cells isolated from normal donors or on Jurkat cells; also called human CD3; CD3+ T cells
T2 sequence (P07766 23-207, chain 1 of 3): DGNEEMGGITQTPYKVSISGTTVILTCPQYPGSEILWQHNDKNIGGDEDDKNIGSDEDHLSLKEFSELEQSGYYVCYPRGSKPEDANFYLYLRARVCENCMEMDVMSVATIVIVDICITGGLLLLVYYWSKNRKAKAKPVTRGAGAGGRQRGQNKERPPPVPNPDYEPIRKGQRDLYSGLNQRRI
T2 sequence (P04234 22-171, chain 2 of 3): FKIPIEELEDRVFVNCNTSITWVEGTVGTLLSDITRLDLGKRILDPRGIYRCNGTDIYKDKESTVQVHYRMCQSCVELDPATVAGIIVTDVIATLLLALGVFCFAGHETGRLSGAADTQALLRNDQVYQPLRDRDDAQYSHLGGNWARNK
T2 sequence (P09693 23-182, chain 3 of 3): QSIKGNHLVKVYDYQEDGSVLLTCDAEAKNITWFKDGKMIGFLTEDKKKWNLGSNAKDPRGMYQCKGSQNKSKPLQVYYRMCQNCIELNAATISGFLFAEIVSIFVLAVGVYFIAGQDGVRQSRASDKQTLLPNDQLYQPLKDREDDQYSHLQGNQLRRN

CD3ε monomer = target: T3, CD3ε monomer (UniProt P07766 23-126); assay: ELISA, soluble protein coated at 0.2 or 2 ug/mL
T3 construct: also called nature CD3ε; denatured CD3ε monomer
T3 sequence (P07766 23-126): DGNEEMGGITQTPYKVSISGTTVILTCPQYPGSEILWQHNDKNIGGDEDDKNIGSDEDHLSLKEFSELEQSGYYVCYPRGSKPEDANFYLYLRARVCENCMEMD

[3] = target: T2, CD3 on T cells / Jurkat cells; assay: FACS on Jurkat cells
[4] = target: T4, GPRC5D on multiple myeloma cells (human, UniProt Q9NZD1 1-345); assay: FACS on multiple myeloma cell lines
T4 construct: whole, on cells; Endogenous GPRC5D on multiple myeloma cell lines; also called G-protein coupled receptor family C group 5 member D; MM.1S, MOLP-8, L363, RPMI8226 cells
T4 sequence (Q9NZD1 whole entry): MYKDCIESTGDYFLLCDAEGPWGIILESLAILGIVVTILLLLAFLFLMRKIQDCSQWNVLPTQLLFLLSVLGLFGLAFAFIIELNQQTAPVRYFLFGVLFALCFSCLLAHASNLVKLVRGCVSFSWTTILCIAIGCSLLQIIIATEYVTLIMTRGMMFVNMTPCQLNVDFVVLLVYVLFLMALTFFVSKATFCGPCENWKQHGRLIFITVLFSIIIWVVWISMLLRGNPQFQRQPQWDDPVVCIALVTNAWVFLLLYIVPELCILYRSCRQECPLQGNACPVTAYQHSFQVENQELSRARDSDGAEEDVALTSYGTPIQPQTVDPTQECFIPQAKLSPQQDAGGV

[5] = target: T1, CD19 on NALM6 cells, Raji cells and …; assay: FACS on NALM6 cells expressing CD19, another experiment (FIG. 45B)
Method: (§1) To evaluate the binding affinity of the generated bispecific antibodies to NALM6 cells, Raji cells, Primary B cells, DoHH2 cells, SU-DHL-1 cells and Jurkat cells, the NALM6 cells expressing CD19, Raji cells expressing CD19, Primary B cells, DoHH2 cells expressing CD20, SU-DHL-1 cells without expressing CD19 or CD20 and Jurkat cells expressing CD3 were stained by the test antibodies and the binding affinity was determined by FACS analysis. Primary B cells were isolated from healthy donors' PBMC by human B cell enrichment Kit (Stemcell #19054). The protocol of FACS analysis is described as follows: [0933] (a) The cells from each cell line above were harvested and centrifuged at 300 g for 5 min, and the supernatant were discarded. […] (b) The cells were washed 2 times with FACS buffer. [0935] (c) Step (a) was repeated. [0936] […] [0937] (e) Step (b) was repeated and the cells were resuspended with 100 μl/well diluted secondary antibody, and incubated at 4° C. for 45 minutes in the dark. [0938] (f) Step (b) was repeated and the cells were resuspended the cells with 150 μl/well FACS buffer and kept in dark for FACS analysis.

[6] = target: T1, CD19 on NALM6 cells, Raji cells and …; assay: FACS on primary B cells from healthy donors' PBMC (FIG. 45D)
Method: as §1

[7] = target: T1, CD19 on NALM6 cells, Raji cells and …; assay: FACS on Raji cells expressing CD19 (FIG. 45C)
Method: as §1

B1: ATG201-D105R-19B (bispecific antibody, human IgG1, kappa, L234A L235A)
heavy 1: not shown
heavy 2: QVQLQQSGAELVRPGSSVKISCKASGYAFSSYWMNWVKQRPGQGLEWIGQIWPGDGDTNYNGKFKGKATLTADESSSTAYMQLSSLASEDSAVYFCARRETTTVGRYYYAMDYWGQGTTVTVSSASTKGPSVFPLAPSSKSTSGGTAALGCLVKDYFPEPVTVSWNSGALTSGVHTFPAVLQSSGLYSLSSVVTVPSSSLGTQTYICNVNHKPSNTKVDKKVEPKSCGGGGSGGGGSEVQLVQSGAEVKKPGSSVKVSCKASGYTFSSYVIHWVRQAPGQCLEWMGYINPYNDVIKYNEKFKGRVTLTSDKSTSTAYMELSSLRSEDTAVYYCARDSYYSYRGFAYWGQGTLVTVSSGGGGSGGGGSGGGGSGGGGSEIVLTQSPDFQSVTPKEKVTITCSASSSVSYMHWYQQKPDQSPKRLIYDTSKLASGVPSRFSGSGSGTDFTLTINSLEAEDAATYYCQQWSSNPPTFGCGTKVEIKGGGGSGGGGSDKTHTCPPCPAPEAAGGPSVFLFPPKPKDTLMISRTPEVTCVVVDVSHEDPEVKFNWYVDGVEVHNAKTKPREEQYNSTYRVVSVLTVLHQDWLNGKEYKCKVSNKALPAPIEKTISKAKGQPREPQVCTLPPSREEMTKNQVSLSCAVKGFYPSDIAVEWESNGQPENNYKTTPPVLDSDGSFFLVSKLTVDKSRWQQGNVFSCSVMHEALHNHYTQKSLSLSPGK
light: not shown
notes: CD19xCD3 Fab-scFv-Fab: two C19B Fabs, anti-CD3 scFv 40E9-L2H3-D105R.H; L234A/L235A
- EC50 [1]: 2.9 nM
- binding result [2]: binds

B2: 40E9-L2H3 (antibody, V domains shown)
VH: EVQLVQSGAEVKKPGSSVKVSCKASGYTFSSYVIHWVRQAPGQCLEWMGYINPYNDVIKYNEKFKGRVTLTSDKSTSTAYMELSSLRSEDTAVYYCARDSYYSYDGFAYWGQGTLVTVSS
VL: EIVLTQSPDFQSVTPKEKVTITCSASSSVSYMHWYQQKPDQSPKRLIYDTSKLASGVPSRFSGSGSGTDFTLTINSLEAEDAATYYCQQWSSNPPTFGCGTKVEIK
notes: also called ch40E9-derived humanized antibody 40E9-L2H3
- binding result (CD3ε monomer): no binding

B3: 40E9-L2H3-N55S.H (antibody, V domains shown)
VH: B2 VH with N55S
VL: B2 VL
notes: also called 40E9-N55S
- binding result (CD3ε monomer): no binding

B4: Bis-40E9-L2H3-D105R.H (bispecific antibody)
VH: EVQLVQSGAEVKKPGASVKVSCKASGYTFTSYVIHWVRQAPGQGLEWMGYFNPYNDGTKYNEEFKGRVTLTSDKSTSTAYMELRSLRSDDTAVYYCARGGVRRYFDVWGQGTTVTVSS
VL: DIQMTQSPSSLSASVGDRVTITCRASQDIGSNLNWLQQKPGKAIKRLIYATFGLDSGVPSRFSGSRSGTDFTLTISSLQPEDFATYYCQQYASFPYTFGGGTKVEIK
scFv: EVQLVQSGAEVKKPGSSVKVSCKASGYTFSSYVIHWVRQAPGQCLEWMGYINPYNDVIKYNEKFKGRVTLTSDKSTSTAYMELSSLRSEDTAVYYCARDSYYSYRGFAYWGQGTLVTVSSGGGGSGGGGSGGGGSGGGGSEIVLTQSPDFQSVTPKEKVTITCSASSSVSYMHWYQQKPDQSPKRLIYDTSKLASGVPSRFSGSGSGTDFTLTINSLEAEDAATYYCQQWSSNPPTFGCGTKVEIK
notes: L234A/L235A
- binding result [3]: binds
- binding result [4]: binds

B5: ch40E9 (antibody, V domains shown)
VH: EVQLQLSGPELVKPGASVKMSCKASGYTFSSYVIHWVKQKPGQGLEWIGYINPYNDVIKYNEKFKGKATLTSDKSSSTAYMELSSLTSEDSAVYYCARDSYYSYDGFAYWGQGTLVTVSA
VL: QIVLTQSPAIMSASPGEKVTMTCSASSSVSYMHWYQQKSGTSPKRWIYDTSKLASGVPARFSGSGSGTSYSLTISSMEAEDAATYYCQQWSSNPPTFGGGTKVEIK
notes: also called 40-C12-C10-E9
- binding result (CD3ε monomer): no binding

B6: ATG201-Y101F-19F (bispecific antibody, human IgG1, kappa, L234A L235A)
heavy 1: not shown
heavy 2: EVKLQESGPGLVAPSQSLSVTCTVSGVSLPDYGVSWIRQPPRKGLEWLGVIWGSETTYYNSALKSRLTIIKDNSKSQVFLKMNSLQTDDTAIYYCAKHYYYGGSYAMDYWGQGTSVTVSSASTKGPSVFPLAPSSKSTSGGTAALGCLVKDYFPEPVTVSWNSGALTSGVHTFPAVLQSSGLYSLSSVVTVPSSSLGTQTYICNVNHKPSNTKVDKKVEPKSCGGGGSGGGGSEVQLVQSGAEVKKPGSSVKVSCKASGYTFSSYVIHWVRQAPGQCLEWMGYINPYNDVIKYNEKFKGRVTLTSDKSTSTAYMELSSLRSEDTAVYYCARDSFYSYDGFAYWGQGTLVTVSSGGGGSGGGGSGGGGSGGGGSEIVLTQSPDFQSVTPKEKVTITCSASSSVSYMHWYQQKPDQSPKRLIYDTSKLASGVPSRFSGSGSGTDFTLTINSLEAEDAATYYCQQWSSNPPTFGCGTKVEIKGGGGSGGGGSDKTHTCPPCPAPEAAGGPSVFLFPPKPKDTLMISRTPEVTCVVVDVSHEDPEVKFNWYVDGVEVHNAKTKPREEQYNSTYRVVSVLTVLHQDWLNGKEYKCKVSNKALPAPIEKTISKAKGQPREPQVCTLPPSREEMTKNQVSLSCAVKGFYPSDIAVEWESNGQPENNYKTTPPVLDSDGSFFLVSKLTVDKSRWQQGNVFSCSVMHEALHNHYTQKSLSLSPGK
light: DIQMTQTTSSLSASLGDRVTISCRASQDISKYLNWYQQKPDGTVKLLIYHTSRLHSGVPSRFSGSGSGTDYSLTISNLEQEDIATYFCQQGNTLPYTFGGGTKLEITRTVAAPSVFIFPPSDEQLKSGTASVVCLLNNFYPREAKVQWKVDNALQSGNSQESVTEQDSKDSTYSLSSTLTLSKADYEKHKVYACEVTHQGLSSPVTKSFNRGEC
notes: CD19xCD3 Fab-scFv-Fab: two C19F Fabs, anti-CD3 scFv 40E9-L2H3-Y101F.H; L234A/L235A
- EC50 [1]: 4.36 nM
- binding result [2]: binds
- EC50 [5]: 0.609 nM
- EC50 [6]: 0.468 nM
- EC50 [7]: 1.13 nM

B7: ATG201-N55S-19F (bispecific antibody, human IgG1, kappa, L234A L235A)
heavy 1: not shown
heavy 2: B6 heavy 2 with N288S, F334Y
light: B6 light
notes: CD19xCD3 Fab-scFv-Fab: two C19F Fabs, anti-CD3 scFv 40E9-L2H3-N55S.H; L234A/L235A
- EC50 [1]: 4.91 nM
- binding result [2]: binds
- EC50 [5]: 0.847 nM
- EC50 [6]: 1.08 nM
- EC50 [7]: 1.5 nM
